Laboratory results from the supplement of paper PMC9732359.
± gives the uncertainty stated by the source.

Assay: protein stability index of a GFP-peptide fusion (yeast GPS) (PSI 1-4); higher = more stable; sorted into four equal gates, so the index is relative within each strain
In short: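 The protein stability index of a peptide was calculated by multiplying its read frequency in each gate by that gate's number and adding the products. The peptides were tiled 17-residue stretches of yeast proteins, fused downstream of GFP on a Cherry-expressing plasmid and carried in yeast as a pooled library. Mid-log cultures in leucine-free medium were sorted into four equal gates by GFP/Cherry ratio, and each gate's plasmids were PCR-amplified and Illumina-sequenced.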

ASYAKIEIKISDPLTVF [SNU114]
protein stability index (doa10∆): 1.21 ± 0.15 | protein stability index (pdr5∆): 2.66 ± 0.25 | protein stability index (ubr1∆): 1.45 ± 0.089

YGHVFLGITGLATDVTT [PUP3]
protein stability index (doa10∆): 1.93 ± 0.13 | protein stability index (pdr5∆): 2.24 ± 0.098 | protein stability index (san1∆): 2.25 ± 0.15 | protein stability index (ubr1∆): 2.29 ± 0.1

FVAKLAAQIFGSYNAFE [COR1]
protein stability index (doa10∆): 1.68 ± 0.043 | protein stability index (pdr5∆): 1.74 ± 0.048 | protein stability index (san1∆): 1.63 ± 0.081 | protein stability index (ubr1∆): 2.13 ± 0.046

PVSVSRIARALKQEGAA [RPL18A]
protein stability index (doa10∆): 3.36 ± 0.22 | protein stability index (pdr5∆): 2.83 ± 0.11 | protein stability index (san1∆): 2.96 ± 0.12 | protein stability index (ubr1∆): 3.3 ± 0.057

GPSSVHNAKNGTLDKNS [SNF2]
protein stability index (doa10∆): 2.66 ± 0.22 | protein stability index (pdr5∆): 3.03 ± 0.22 | protein stability index (ubr1∆): 2.74 ± 0.17

NSMDMVDGMAKVPIGLI [RGR1]
protein stability index (doa10∆): 3.4 ± 0.12 | protein stability index (pdr5∆): 3.37 ± 0.072 | protein stability index (san1∆): 2.99 ± 0.15 | protein stability index (ubr1∆): 3.23 ± 0.073

AGLDKGISINNMMEHWD [RPO31]
protein stability index (doa10∆): 3.04 ± 0.13 | protein stability index (pdr5∆): 3.09 ± 0.091 | protein stability index (san1∆): 3.02 ± 0.086 | protein stability index (ubr1∆): 3.14 ± 0.05

TPISNEQTEGEPKKKRG [SRP68]
protein stability index (doa10∆): 3.16 ± 0.12 | protein stability index (pdr5∆): 3.27 ± 0.17 | protein stability index (san1∆): 3.27 ± 0.11 | protein stability index (ubr1∆): 3.27 ± 0.068

LESISHAGTAIGIMASD [PRE9]
protein stability index (doa10∆): 1.45 ± 0.14 | protein stability index (pdr5∆): 2.15 ± 0.1 | protein stability index (san1∆): 2.06 ± 0.14 | protein stability index (ubr1∆): 1.5 ± 0.13

LGKKKATVDEFPLCVHL [RPL10]
protein stability index (doa10∆): 3.1 ± 0.19 | protein stability index (pdr5∆): 2.67 ± 0.14 | protein stability index (san1∆): 3 ± 0.29 | protein stability index (ubr1∆): 2.71 ± 0.069

ASHNVRRIPKRMRNRAL [POP1]
protein stability index (doa10∆): 2.11 ± 0.16 | protein stability index (pdr5∆): 2.34 ± 0.058 | protein stability index (ubr1∆): 2.07 ± 0.25

RLNENKKIGCYMFANLE [CSN12]
protein stability index (doa10∆): 2.76 ± 0.17 | protein stability index (pdr5∆): 3.14 ± 0.18 | protein stability index (san1∆): 3.25 ± 0.084 | protein stability index (ubr1∆): 3.27 ± 0.11

ELLEYSDDIAENDNLDN [YCG1]
protein stability index (doa10∆): 3.06 ± 0.058 | protein stability index (pdr5∆): 3.27 ± 0.068 | protein stability index (san1∆): 3.21 ± 0.049 | protein stability index (ubr1∆): 3.25 ± 0.054

YFLKVTFLKYFGWLLSD [IRR1]
protein stability index (doa10∆): 1.75 ± 0.074 | protein stability index (pdr5∆): 1.59 ± 0.054 | protein stability index (san1∆): 1.88 ± 0.09 | protein stability index (ubr1∆): 1.8 ± 0.062

HGKRRSQVVETHKVTDI [YMR129W/POM152]
protein stability index (doa10∆): 3.35 ± 0.13 | protein stability index (pdr5∆): 3.01 ± 0.13 | protein stability index (san1∆): 3.18 ± 0.064 | protein stability index (ubr1∆): 3.2 ± 0.058

EGIEKMGVRTFSQKEMA [FAS2]
protein stability index (doa10∆): 2.96 ± 0.16 | protein stability index (pdr5∆): 2.73 ± 0.24 | protein stability index (san1∆): 2.88 ± 0.071 | protein stability index (ubr1∆): 2.89 ± 0.061

PKIDEDDTWYNLTEFVQ [AAR2]
protein stability index (doa10∆): 3.17 ± 0.088 | protein stability index (pdr5∆): 3.23 ± 0.086 | protein stability index (san1∆): 3.07 ± 0.049 | protein stability index (ubr1∆): 3.07 ± 0.057

LVRDSKPSKPFNVDDVL [MED8]
protein stability index (doa10∆): 2.48 ± 0.055 | protein stability index (pdr5∆): 2.57 ± 0.044 | protein stability index (san1∆): 2.46 ± 0.051 | protein stability index (ubr1∆): 2.5 ± 0.047

VLRLRGALVDRTQPWSI [RPS0A]
protein stability index (doa10∆): 2.65 ± 0.086 | protein stability index (pdr5∆): 2.44 ± 0.072 | protein stability index (san1∆): 2.52 ± 0.067 | protein stability index (ubr1∆): 3.08 ± 0.031

LVVLTDVVERLHKNFES [RGR1]
protein stability index (doa10∆): 2.49 ± 0.093 | protein stability index (pdr5∆): 2.74 ± 0.073 | protein stability index (san1∆): 2.61 ± 0.12 | protein stability index (ubr1∆): 2.96 ± 0.053

HELGINIDSLKFNELVK [BRR2]
protein stability index (doa10∆): 2.89 ± 0.07 | protein stability index (pdr5∆): 2.93 ± 0.058 | protein stability index (san1∆): 3.08 ± 0.054 | protein stability index (ubr1∆): 2.9 ± 0.06

ESMSYLPDPILKNFLSY [MCD1]
protein stability index (doa10∆): 2.34 ± 0.13 | protein stability index (pdr5∆): 2.79 ± 0.12 | protein stability index (san1∆): 2.5 ± 0.14 | protein stability index (ubr1∆): 2.51 ± 0.098

FTIVSLVQLKKFSDLKF [YML103C/NUP188]
protein stability index (doa10∆): 2.37 ± 0.17 | protein stability index (pdr5∆): 2.5 ± 0.097 | protein stability index (san1∆): 2.7 ± 0.1 | protein stability index (ubr1∆): 2.06 ± 0.073

NECQRLQNIVMDCTKEE [YIL149C/MLP2]
protein stability index (doa10∆): 2.61 ± 0.093 | protein stability index (pdr5∆): 3.47 ± 0.11 | protein stability index (san1∆): 3.66 ± 0.2 | protein stability index (ubr1∆): 3.4 ± 0.12

QVVTTVASQSPHATATE [SNF6]
protein stability index (doa10∆): 2.56 ± 0.11 | protein stability index (pdr5∆): 2.88 ± 0.079 | protein stability index (san1∆): 2.6 ± 0.096 | protein stability index (ubr1∆): 2.79 ± 0.047

VAHSSRLANLIDYKLRV [SMB1]
protein stability index (doa10∆): 3.58 ± 0.15 | protein stability index (pdr5∆): 3.26 ± 0.15 | protein stability index (san1∆): 2.5 ± 0.2 | protein stability index (ubr1∆): 3.17 ± 0.066

SKLLYDDVTCDKLSVSE [SIN4]
protein stability index (doa10∆): 3.08 ± 0.07 | protein stability index (pdr5∆): 3.02 ± 0.053 | protein stability index (san1∆): 2.86 ± 0.051 | protein stability index (ubr1∆): 3.23 ± 0.043

KGLKENDVAVEKTGKSA [BRR2]
protein stability index (doa10∆): 3.03 ± 0.15 | protein stability index (san1∆): 2.73 ± 0.21

SNGEVLEVGKNNFCALY [RPN14]
protein stability index (doa10∆): 2.34 ± 0.07 | protein stability index (pdr5∆): 2.05 ± 0.11 | protein stability index (san1∆): 1.64 ± 0.14 | protein stability index (ubr1∆): 2.05 ± 0.036

EDGLGPLMAKSVKKAGA [ARP7]
protein stability index (pdr5∆): 3.48 ± 0.27 | protein stability index (ubr1∆): 3.27 ± 0.14

ESSLTISLYFNDILDEL [ECM29]
protein stability index (doa10∆): 1.89 ± 0.06 | protein stability index (pdr5∆): 2.25 ± 0.051 | protein stability index (san1∆): 2.38 ± 0.07 | protein stability index (ubr1∆): 2.4 ± 0.061

TPRDRRKSVFAPLNFNP [SSN2]
protein stability index (doa10∆): 2.68 ± 0.066 | protein stability index (pdr5∆): 2.57 ± 0.063 | protein stability index (san1∆): 2.95 ± 0.081 | protein stability index (ubr1∆): 2.86 ± 0.045

FLDSMAQKYASIVGVDL [FAS2]
protein stability index (doa10∆): 1.81 ± 0.051 | protein stability index (pdr5∆): 2.29 ± 0.048 | protein stability index (san1∆): 1.96 ± 0.057 | protein stability index (ubr1∆): 2.61 ± 0.035

NWRRLSGRNIHLAVVCV [SSN2]
protein stability index (doa10∆): 2.12 ± 0.085 | protein stability index (pdr5∆): 1.58 ± 0.044 | protein stability index (san1∆): 1.55 ± 0.078 | protein stability index (ubr1∆): 2.86 ± 0.045

VSYMMPSLYRLLNILIT [SRB8]
protein stability index (doa10∆): 1.22 ± 0.12 | protein stability index (pdr5∆): 1.21 ± 0.07 | protein stability index (san1∆): 1.1 ± 0.12 | protein stability index (ubr1∆): 1.3 ± 0.057

FSKQCLISNAIYGKKTM [ECM29]
protein stability index (doa10∆): 1.15 ± 0.098 | protein stability index (pdr5∆): 1.95 ± 0.077 | protein stability index (san1∆): 1.63 ± 0.14 | protein stability index (ubr1∆): 1.82 ± 0.067

TVLESLGRLNKLRKIAI [LIN1]
protein stability index (doa10∆): 2.66 ± 0.057 | protein stability index (pdr5∆): 2.69 ± 0.049 | protein stability index (san1∆): 2.66 ± 0.058 | protein stability index (ubr1∆): 2.95 ± 0.035

TQAKKLYHHTTKTILSG [SRP72]
protein stability index (doa10∆): 3.17 ± 0.069 | protein stability index (pdr5∆): 2.86 ± 0.051 | protein stability index (san1∆): 2.49 ± 0.098 | protein stability index (ubr1∆): 3.26 ± 0.046

PTNCPLRQFKTCPVEVI [BRR2]
protein stability index (doa10∆): 3 ± 0.093 | protein stability index (pdr5∆): 3.17 ± 0.09 | protein stability index (san1∆): 3.33 ± 0.063 | protein stability index (ubr1∆): 2.9 ± 0.066

DALLNSTTEHINIDDLL [YJL039C/NUP192]
protein stability index (doa10∆): 2.47 ± 0.24 | protein stability index (pdr5∆): 2.73 ± 0.12 | protein stability index (san1∆): 2.59 ± 0.092 | protein stability index (ubr1∆): 3.17 ± 0.059

EYADNDEDKFKKLKPIV [PRP28]
protein stability index (doa10∆): 2.82 ± 0.072 | protein stability index (pdr5∆): 2.65 ± 0.092 | protein stability index (san1∆): 3.09 ± 0.09 | protein stability index (ubr1∆): 2.64 ± 0.041

FEHGRTPAEMSRPATTT [FAS2]
protein stability index (doa10∆): 2.72 ± 0.064 | protein stability index (pdr5∆): 3.13 ± 0.081 | protein stability index (san1∆): 2.41 ± 0.09 | protein stability index (ubr1∆): 2.79 ± 0.1

VGSVTYQVDEDVKSSLS [YJL039C/NUP192]
protein stability index (doa10∆): 3.26 ± 0.15 | protein stability index (pdr5∆): 3.2 ± 0.13 | protein stability index (san1∆): 3.29 ± 0.062 | protein stability index (ubr1∆): 3.48 ± 0.1
